# From the RNAGym collection of RNA variant scans (doi:10.1073/pnas.2313332121)
# B1: TPR t1 (parent)
# chain: GACCAAUCUGCCCUCAGAGCUCGAGAACAUCUUCGGAUGCAGAGGAGGCAGGCUUCGGUGGCGCGAUAGCGCCAACGUCCUCAACCUCCAAUGCAUCCCACCACAUGAUGAUGCCUGAAGAGCCUUGGUUUUUUG
# Variants of: B1
# Assay: polymerase ribozyme fitness, log enrichment relative to wild type (log ratio); higher = more active; in vitro selection for triplet polymerase activity
# Method in brief: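 Mutant libraries of each subunit of a heterodimeric triplet polymerase ribozyme were built by PCR and transcribed. Each library went through one round of in vitro selection in triplicate: annealing with biotinylated primer, partner subunit and triplets, frozen incubation at −7 °C, gel excision of extended constructs, streptavidin-bead capture and RT-PCR. Input and output libraries were Illumina-sequenced; only genotypes with ≥10 input reads and ≥1 read per output were kept. Fitness is log2(genotype enrichment/wild-type enrichment), using inverse-variance-weighted replicate averages.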
row,Variant,polymerase ribozyme fitness (log ratio)
1,A41U G45A C88A C115A U131A,-3.64
2,G44A G60A U106G U112A,-1.83
3,G44A A119G C123A,0.608
4,A43U C53A C62A G93A U112C G128U,-4.57
5,A43C G52U,-3.56
6,A43C U87A U106A,-2.43
7,A43G A50G G60U A95G U132C,-3.96
8,A43C A46G,-1.62
9,G44A G71A C73A,-2.85
10,G42C G63U C123U U133A,-1.98
11,G44A U96G U116A,-5.13
12,G42U G52U U54A A111C G122A,-5.42
13,G42C C62U U131C,-1.44
14,G42A U78A,-2.26
15,A41U G47A G110U,-5.48
16,A41U G69U G120C,0.831
17,A43C G113A,-2.91
18,G42C A66U A83U,-3.36
19,A43C U55A C62U G93U U96G,-4.79
20,G44U A50C C73U U92C,-2.12
21,G44C A83U,-0.396

row,Variant,polymerase ribozyme fitness (log ratio)
1,A43U A46U C97U,-3.34
2,G44A G77C,-0.688
3,A43U C62A,-2.39
4,A43U C62G,-3.88
5,G44C G60U,-0.287
6,A41U C76A,-1.89
7,G44A C80A,-3.93
8,G44A A50U G60U U132C,-2.38
9,G44A C98U C104U U116C,-4.16
10,G42U C49G U112A,-0.357
11,A43U G71A A91G,-3.35
12,G44A C56U C72U,-2.35
13,A43C G77A G127C,-3.5
14,A41U U130A,-2.03
15,A41U C53U C72A C86A C114U U129G,-5.65
16,G42U C88U C101G,-3.94
17,G44A U87G U129G,-1.42
18,A43U G77A G120A U134G,-0.215
19,G42U A43C G69C A74U U87G C89G,-5.66
20,G44C G47U,-1.8
21,G44A C104U,-0.855

row,Variant,polymerase ribozyme fitness (log ratio)
1,G42A C56A U112A G120A,-4.77
2,A41U C70A C89G C97A A105C G110U,-5.8
3,G42C G47U,-4.02
4,A43C C72A U81C,-3.09
5,G42A U116C,-3.35
6,G42U C49A U81G,-5.58
7,G44U C56G G61U C89A C94G G122A,-4.78
8,A43U G63C A100U C124G,-2.24
9,G44C C85U U92A C124U U133C,-1.63
10,G42C G48A G63U U78C A83C G113U,-7.11
11,A43G G57U C73U A90U C102U,-4.93
12,G44U C49U U96C A111G,-3.97
13,A43C C72U A100U U130G,-4.41
14,A41U G61A G127C,-2.63
15,A43C C85U C115G,-4.93
16,A43G U112C G122U,-0.183
17,G42U U112A,-0.57
18,A43U U92G C124U,-0.53
19,G44A C56U,-0.878
20,G44A C56A,-1.33
21,A41U U87G,-0.681

row,Variant,polymerase ribozyme fitness (log ratio)
1,G44U A75U U92C,-1.34
2,G44A C102U,-4.04
3,A43G C102A,-4.25
4,G42U C72U,-1.64
5,G44C G61A C80A,-4.34
6,G42U U87C G128U U133A,-3.75
7,G44U A46U G117U,-4.65
8,G44A G45U G77A U129C,-3.02
9,G42U G61U C88G C101A G120C,-3.56
10,G44A G48U C53A G60U,-1.14
11,G42U A46C C53A U92A A95C C104G U112A,-7.25
12,G44C C70A U96A,-3.81
13,G42A G44U C73G U112A G122A,-3.21
14,G42A C99U,-6.05
15,A41U G52A G117U,-4.85
16,G42U U78A C85U,-2.63
17,G42U G58C G63A C82G U87C,-5.43
18,A43U U96C C101A G122A G127A,-5.79
19,A43G C76U U109G,-6.79
20,A43U G93C G117C,-4.65
21,A43U C49A C114G,-1.78
